How the values were obtained:
[1] = biological target: firefly luciferase Fluc^A12C-K329C (Fluc^NDS1, N-terminal domain sensor) (firefly) [luciferase: P08659]; assay: single-molecule FRET within the labelled client
[2] = biological target: firefly luciferase Fluc^K378C-K496C (Fluc^CDS1, C-terminal domain sensor) (firefly) [luciferase: P08659]; assay: single-molecule FRET within the labelled client

percent of the time DnaK-bound (FRET < 0.3) after 15 min [1]: 15%
percent of the time DnaK-bound (FRET < 0.3) after 15 min [2]: 15%
Substance: DnaK (bacterial Hsp70) (from UniProt P0A6Y8 1-638) (natural protein)
